Reference: PMC9482650, “Quantitative fragmentomics allow affinity mapping of interactomes” (Nature Communications, 2022)

T1: APBA1_1, Q02410
T1 sequence (Q02410 651-752, limits assumed, looked up): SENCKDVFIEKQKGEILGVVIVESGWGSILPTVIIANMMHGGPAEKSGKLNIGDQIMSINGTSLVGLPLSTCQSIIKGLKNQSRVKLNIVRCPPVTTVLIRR

T2: ARHGEF11, O15085
T2 sequence (O15085 42-136, limits assumed, looked up): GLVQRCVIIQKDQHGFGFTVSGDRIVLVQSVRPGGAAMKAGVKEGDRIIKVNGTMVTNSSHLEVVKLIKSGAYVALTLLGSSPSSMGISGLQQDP

T3: DLG3_2, Q92796
T3 sequence (Q92796 221-321, limits assumed, looked up): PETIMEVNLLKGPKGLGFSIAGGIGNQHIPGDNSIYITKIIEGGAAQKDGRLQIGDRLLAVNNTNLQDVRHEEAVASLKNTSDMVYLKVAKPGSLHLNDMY

T4: FRMPD1, Q5SYB0
T4 sequence (Q5SYB0 52-145, limits assumed, looked up): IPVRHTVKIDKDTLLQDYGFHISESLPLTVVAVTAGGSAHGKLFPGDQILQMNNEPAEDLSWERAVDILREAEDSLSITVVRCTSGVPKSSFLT

T5: HTRA3, P83110
T5 sequence (P83110 354-453, limits assumed, looked up): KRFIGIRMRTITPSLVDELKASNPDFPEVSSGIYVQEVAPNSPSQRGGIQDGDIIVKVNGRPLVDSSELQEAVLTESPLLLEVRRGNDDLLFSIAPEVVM

T6: LIN7B, Q9HAP6
T6 sequence (Q9HAP6 88-185, limits assumed, looked up): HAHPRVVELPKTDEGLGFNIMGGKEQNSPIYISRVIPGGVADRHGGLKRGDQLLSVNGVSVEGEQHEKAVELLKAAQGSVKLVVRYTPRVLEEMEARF

T7: NHERF3_3, Q5T2W1
T7 sequence (Q5T2W1 238-333, limits assumed, looked up): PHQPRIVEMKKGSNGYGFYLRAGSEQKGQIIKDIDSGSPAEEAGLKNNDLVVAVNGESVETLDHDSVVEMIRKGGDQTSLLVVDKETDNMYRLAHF

T8: RHPN1, Q8TCX5
T8 sequence (Q8TCX5 508-602, limits assumed, looked up): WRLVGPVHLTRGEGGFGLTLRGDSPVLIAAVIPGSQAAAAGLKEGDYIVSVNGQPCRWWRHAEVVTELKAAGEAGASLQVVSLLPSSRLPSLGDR

T9: SNTA1, Q13424
T9 sequence (Q13424 82-180, limits assumed, looked up): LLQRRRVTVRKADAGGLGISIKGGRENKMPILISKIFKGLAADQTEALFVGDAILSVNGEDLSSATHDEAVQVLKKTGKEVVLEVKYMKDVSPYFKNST


What follows are binders tested against T1, APBA1_1, Q02410 (assay: holdup assay). Details: plain residues with an end cap or a label only (N-terminal biotin on a linker: ado-ado).
Parameters: key: below the threshold = too weak to quantify, mostly under pKd 3.1 to 4
PPYRHRNTVV [ERBB4, Q15303] was tested, and the pKd was “below the threshold”.
In the case of GSGAVEMESV [AQP6, Q13520], the pKd is reported as “below the threshold”.

Each binder was assayed against T2, ARHGEF11, O15085 (assay: holdup assay). Details: plain residues with an end cap or a label only (N-terminal biotin on a linker: ado-ado).
Parameters: key: below the threshold = too weak to quantify, mostly under pKd 3.1 to 4
For PPYRHRNTVV [ERBB4, Q15303], the pKd was 4.06.
GSGAVEMESV [AQP6, Q13520] was tested, and the pKd was “below the threshold”.

These binders were tested against T3, DLG3_2, Q92796 (assay: holdup assay). Details: plain residues with an end cap or a label only (N-terminal biotin on a linker: ado-ado).
Parameters: key: below the threshold = too weak to quantify, mostly under pKd 3.1 to 4
PPYRHRNTVV [ERBB4, Q15303] showed a pKd of 4.79.
In the case of GSGAVEMESV [AQP6, Q13520], the pKd is reported as “below the threshold”.

These binders were tested against DLG4_2, P78352 (assay: holdup assay). Details: plain residues with an end cap or a label only (N-terminal biotin on a linker: ado-ado).
Sequence of DLG4_2, P78352 (P78352 155-259): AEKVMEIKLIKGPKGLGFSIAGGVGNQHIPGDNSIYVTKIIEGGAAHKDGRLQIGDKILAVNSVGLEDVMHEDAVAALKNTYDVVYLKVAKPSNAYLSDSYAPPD
Parameters: key: below the threshold = too weak to quantify, mostly under pKd 3.1 to 4
Binder PPYRHRNTVV [ERBB4, Q15303] has a pKd of 4.97.
With GSGAVEMESV [AQP6, Q13520] the pKd was “below the threshold”.

What follows are binders tested against T4, FRMPD1, Q5SYB0 (assay: holdup assay). Details: plain residues with an end cap or a label only (N-terminal biotin on a linker: ado-ado).
Parameters: key: below the threshold = too weak to quantify, mostly under pKd 3.1 to 4
With PPYRHRNTVV [ERBB4, Q15303] the pKd was “below the threshold”.
For GSGAVEMESV [AQP6, Q13520], the pKd was “below the threshold”.

What follows are binders tested against FRMPD2_1, Q68DX3 (assay: holdup assay). Details: plain residues with an end cap or a label only (N-terminal biotin on a linker: ado-ado).
Sequence of FRMPD2_1, Q68DX3 (Q68DX3 770-861): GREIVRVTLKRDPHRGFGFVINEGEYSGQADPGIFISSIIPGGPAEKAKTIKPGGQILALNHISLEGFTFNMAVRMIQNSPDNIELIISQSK
Parameters: key: below the threshold = too weak to quantify, mostly under pKd 3.1 to 4
Work on PPYRHRNTVV [ERBB4, Q15303] yielded a pKd of 3.71.
With GSGAVEMESV [AQP6, Q13520] the pKd was “below the threshold”.

What follows are binders tested against FRMPD2_3, Q68DX3 (assay: holdup assay). Details: plain residues with an end cap or a label only (N-terminal biotin on a linker: ado-ado).
Sequence of FRMPD2_3, Q68DX3 (Q68DX3 1073-1166): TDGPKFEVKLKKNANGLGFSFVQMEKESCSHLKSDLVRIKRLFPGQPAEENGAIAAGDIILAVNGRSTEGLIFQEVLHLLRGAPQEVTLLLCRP
Parameters: key: below the threshold = too weak to quantify, mostly under pKd 3.1 to 4
With PPYRHRNTVV [ERBB4, Q15303] the pKd was “below the threshold”.
GSGAVEMESV [AQP6, Q13520] was tested, and the pKd was “below the threshold”.

What follows are binders tested against GIPC2, Q8TF65 (assay: holdup assay). Details: plain residues with an end cap or a label only (N-terminal biotin on a linker: ado-ado).
Sequence of GIPC2, Q8TF65 (Q8TF65 112-203): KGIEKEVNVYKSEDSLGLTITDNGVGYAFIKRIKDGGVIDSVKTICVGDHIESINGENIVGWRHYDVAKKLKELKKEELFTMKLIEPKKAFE
Parameters: key: below the threshold = too weak to quantify, mostly under pKd 3.1 to 4
PPYRHRNTVV [ERBB4, Q15303] showed a pKd of 3.6.
With GSGAVEMESV [AQP6, Q13520] the pKd was “below the threshold”.

These binders were tested against GOPC, Q9HD26 (assay: holdup assay). Details: plain residues with an end cap or a label only (N-terminal biotin on a linker: ado-ado).
Parameters: key: below the threshold = too weak to quantify, mostly under pKd 3.1 to 4
PPYRHRNTVV [ERBB4, Q15303] was tested, and the pKd was 4.08.
For GSGAVEMESV [AQP6, Q13520], the pKd was “below the threshold”.

What follows are binders tested against GORASP1, Q9BQQ3 (assay: holdup assay). Details: plain residues with an end cap or a label only (N-terminal biotin on a linker: ado-ado).
Sequence of GORASP1, Q9BQQ3 (Q9BQQ3 1-208): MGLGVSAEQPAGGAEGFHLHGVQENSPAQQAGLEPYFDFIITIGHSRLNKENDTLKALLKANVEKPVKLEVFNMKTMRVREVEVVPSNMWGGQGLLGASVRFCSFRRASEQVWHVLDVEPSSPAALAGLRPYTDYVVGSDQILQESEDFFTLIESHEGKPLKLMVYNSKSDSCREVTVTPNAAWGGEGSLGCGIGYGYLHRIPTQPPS
Parameters: key: below the threshold = too weak to quantify, mostly under pKd 3.1 to 4
PPYRHRNTVV [ERBB4, Q15303] gave a pKd of 4.19.
With GSGAVEMESV [AQP6, Q13520] the pKd was “below the threshold”.

The binders below were run against T5, HTRA3, P83110 (assay: holdup assay). Details: plain residues with an end cap or a label only (N-terminal biotin on a linker: ado-ado).
Parameters: key: below the threshold = too weak to quantify, mostly under pKd 3.1 to 4
In the case of PPYRHRNTVV [ERBB4, Q15303], the pKd is reported as “below the threshold”.
For GSGAVEMESV [AQP6, Q13520], the pKd was “below the threshold”.

What follows are binders tested against Inadl_1, Q8NI35 (assay: holdup assay). Details: plain residues with an end cap or a label only (N-terminal biotin on a linker: ado-ado).
Sequence of Inadl_1, Q8NI35 (Q8NI35 113-229): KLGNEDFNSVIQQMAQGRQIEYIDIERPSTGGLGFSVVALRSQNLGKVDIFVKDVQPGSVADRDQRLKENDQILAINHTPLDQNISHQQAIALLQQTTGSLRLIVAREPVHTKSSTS
Parameters: key: below the threshold = too weak to quantify, mostly under pKd 3.1 to 4
With PPYRHRNTVV [ERBB4, Q15303] the pKd was “below the threshold”.
For GSGAVEMESV [AQP6, Q13520], the pKd was “below the threshold”.

These binders were tested against Inadl_10, Q8NI35 (assay: holdup assay). Details: plain residues with an end cap or a label only (N-terminal biotin on a linker: ado-ado).
Sequence of Inadl_10, Q8NI35 (Q8NI35 1673-1763): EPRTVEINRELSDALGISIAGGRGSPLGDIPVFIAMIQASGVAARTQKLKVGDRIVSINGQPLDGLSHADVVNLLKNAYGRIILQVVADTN
Parameters: key: below the threshold = too weak to quantify, mostly under pKd 3.1 to 4
For PPYRHRNTVV [ERBB4, Q15303], the pKd was “below the threshold”.
For GSGAVEMESV [AQP6, Q13520], the pKd was “below the threshold”.

Each binder was assayed against Inadl_4, Q8NI35 (assay: holdup assay). Details: plain residues with an end cap or a label only (N-terminal biotin on a linker: ado-ado).
Sequence of Inadl_4, Q8NI35 (Q8NI35 547-651): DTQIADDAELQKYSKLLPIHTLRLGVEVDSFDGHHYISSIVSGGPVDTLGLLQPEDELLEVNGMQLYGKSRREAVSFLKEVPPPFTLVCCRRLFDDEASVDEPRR
Parameters: key: below the threshold = too weak to quantify, mostly under pKd 3.1 to 4
PPYRHRNTVV [ERBB4, Q15303] was tested, and the pKd was “below the threshold”.
GSGAVEMESV [AQP6, Q13520] was tested, and the pKd was “below the threshold”.

These binders were tested against Inadl_6, Q8NI35 (assay: holdup assay). Details: plain residues with an end cap or a label only (N-terminal biotin on a linker: ado-ado).
Sequence of Inadl_6, Q8NI35 (Q8NI35 1058-1167): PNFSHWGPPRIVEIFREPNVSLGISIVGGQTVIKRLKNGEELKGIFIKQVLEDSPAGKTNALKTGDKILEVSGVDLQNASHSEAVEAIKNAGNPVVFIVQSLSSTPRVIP
Parameters: key: below the threshold = too weak to quantify, mostly under pKd 3.1 to 4
In the case of PPYRHRNTVV [ERBB4, Q15303], the pKd is reported as “below the threshold”.
With GSGAVEMESV [AQP6, Q13520] the pKd was “below the threshold”.

Each binder was assayed against Inadl_8, Q8NI35 (assay: holdup assay). Details: plain residues with an end cap or a label only (N-terminal biotin on a linker: ado-ado).
Sequence of Inadl_8, Q8NI35 (Q8NI35 1425-1530): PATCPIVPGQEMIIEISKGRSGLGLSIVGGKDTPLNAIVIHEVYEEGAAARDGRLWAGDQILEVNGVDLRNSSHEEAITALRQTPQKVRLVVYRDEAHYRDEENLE
Parameters: key: below the threshold = too weak to quantify, mostly under pKd 3.1 to 4
PPYRHRNTVV [ERBB4, Q15303] gave a pKd of 4.29.
For GSGAVEMESV [AQP6, Q13520], the pKd was “below the threshold”.

What follows are binders tested against T6, LIN7B, Q9HAP6 (assay: holdup assay). Details: plain residues with an end cap or a label only (N-terminal biotin on a linker: ado-ado).
Parameters: key: below the threshold = too weak to quantify, mostly under pKd 3.1 to 4
In the case of PPYRHRNTVV [ERBB4, Q15303], the pKd is reported as “below the threshold”.
With GSGAVEMESV [AQP6, Q13520] the pKd was “below the threshold”.

These binders were tested against LNX1_2, Q8TBB1 (assay: holdup assay). Details: plain residues with an end cap or a label only (N-terminal biotin on a linker: ado-ado).
Sequence of LNX1_2, Q8TBB1 (Q8TBB1 371-470): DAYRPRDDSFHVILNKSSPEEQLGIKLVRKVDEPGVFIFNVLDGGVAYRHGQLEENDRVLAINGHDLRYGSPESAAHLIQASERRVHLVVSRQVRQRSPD
Parameters: key: below the threshold = too weak to quantify, mostly under pKd 3.1 to 4
With PPYRHRNTVV [ERBB4, Q15303] the pKd was 3.54.
In the case of GSGAVEMESV [AQP6, Q13520], the pKd is reported as “below the threshold”.

The binders below were run against LNX1_3, Q8TBB1 (assay: holdup assay). Details: plain residues with an end cap or a label only (N-terminal biotin on a linker: ado-ado).
Sequence of LNX1_3, Q8TBB1 (Q8TBB1 500-596): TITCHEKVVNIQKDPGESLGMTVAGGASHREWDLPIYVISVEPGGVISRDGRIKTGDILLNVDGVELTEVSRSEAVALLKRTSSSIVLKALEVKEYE
Parameters: key: below the threshold = too weak to quantify, mostly under pKd 3.1 to 4
PPYRHRNTVV [ERBB4, Q15303] was tested, and the pKd was “below the threshold”.
With GSGAVEMESV [AQP6, Q13520] the pKd was “below the threshold”.

Each binder was assayed against MAGI1_2, Q96QZ7 (assay: holdup assay). Details: plain residues with an end cap or a label only (N-terminal biotin on a linker: ado-ado).
Sequence of MAGI1_2, Q96QZ7 (Q96QZ7 456-580): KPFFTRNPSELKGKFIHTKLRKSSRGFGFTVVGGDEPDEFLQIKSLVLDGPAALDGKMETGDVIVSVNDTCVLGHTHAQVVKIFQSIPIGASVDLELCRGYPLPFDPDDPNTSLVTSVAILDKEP
Parameters: key: below the threshold = too weak to quantify, mostly under pKd 3.1 to 4
PPYRHRNTVV [ERBB4, Q15303] gave a pKd of 4.21.
With GSGAVEMESV [AQP6, Q13520] the pKd was “below the threshold”.

These binders were tested against MAGI2_3, Q86UL8 (assay: holdup assay). Details: plain residues with an end cap or a label only (N-terminal biotin on a linker: ado-ado).
Sequence of MAGI2_3, Q86UL8 (Q86UL8 600-682): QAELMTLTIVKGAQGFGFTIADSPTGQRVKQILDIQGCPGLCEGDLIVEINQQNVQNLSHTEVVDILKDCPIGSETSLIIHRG
Parameters: key: below the threshold = too weak to quantify, mostly under pKd 3.1 to 4
In the case of PPYRHRNTVV [ERBB4, Q15303], the pKd is reported as “below the threshold”.
In the case of GSGAVEMESV [AQP6, Q13520], the pKd is reported as “below the threshold”.

The binders below were run against MAGI3_2, Q5TCQ9 (assay: holdup assay). Details: plain residues with an end cap or a label only (N-terminal biotin on a linker: ado-ado).
Sequence of MAGI3_2, Q5TCQ9 (Q5TCQ9 398-503): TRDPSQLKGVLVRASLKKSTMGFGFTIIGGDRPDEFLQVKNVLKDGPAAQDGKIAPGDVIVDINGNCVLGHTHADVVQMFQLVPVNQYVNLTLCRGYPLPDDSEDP
Parameters: key: below the threshold = too weak to quantify, mostly under pKd 3.1 to 4
Work on PPYRHRNTVV [ERBB4, Q15303] yielded a pKd of 4.79.
GSGAVEMESV [AQP6, Q13520] was tested, and the pKd was “below the threshold”.

These binders were tested against MAST2, Q6P0Q8 (assay: holdup assay). Details: plain residues with an end cap or a label only (N-terminal biotin on a linker: ado-ado).
Sequence of MAST2, Q6P0Q8 (Q6P0Q8 1099-1202): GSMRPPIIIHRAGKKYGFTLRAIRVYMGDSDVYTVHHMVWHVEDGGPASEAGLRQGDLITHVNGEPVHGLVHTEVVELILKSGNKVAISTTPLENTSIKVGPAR
Parameters: key: below the threshold = too weak to quantify, mostly under pKd 3.1 to 4
Binder PPYRHRNTVV [ERBB4, Q15303] has a pKd of 4.48.
GSGAVEMESV [AQP6, Q13520] gave a pKd of 4.03.

Each binder was assayed against T7, NHERF3_3, Q5T2W1 (assay: holdup assay). Details: plain residues with an end cap or a label only (N-terminal biotin on a linker: ado-ado).
Parameters: key: below the threshold = too weak to quantify, mostly under pKd 3.1 to 4
For PPYRHRNTVV [ERBB4, Q15303], the pKd was “below the threshold”.
For GSGAVEMESV [AQP6, Q13520], the pKd was “below the threshold”.

The binders below were run against NHERF4_4, Q86UT5 (assay: holdup assay). Details: plain residues with an end cap or a label only (N-terminal biotin on a linker: ado-ado).
Sequence of NHERF4_4, Q86UT5 (Q86UT5 464-550): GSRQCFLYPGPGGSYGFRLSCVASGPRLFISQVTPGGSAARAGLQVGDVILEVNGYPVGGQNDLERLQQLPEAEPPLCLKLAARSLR
Parameters: key: below the threshold = too weak to quantify, mostly under pKd 3.1 to 4
PPYRHRNTVV [ERBB4, Q15303] was tested, and the pKd was “below the threshold”.
GSGAVEMESV [AQP6, Q13520] was tested, and the pKd was “below the threshold”.

These binders were tested against PARD3_3, Q8TEW0 (assay: holdup assay). Details: plain residues with an end cap or a label only (N-terminal biotin on a linker: ado-ado).
Sequence of PARD3_3, Q8TEW0 (Q8TEW0 582-685): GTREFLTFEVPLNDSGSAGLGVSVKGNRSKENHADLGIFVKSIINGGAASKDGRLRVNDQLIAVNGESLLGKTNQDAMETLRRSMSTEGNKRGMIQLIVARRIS
Parameters: key: below the threshold = too weak to quantify, mostly under pKd 3.1 to 4
In the case of PPYRHRNTVV [ERBB4, Q15303], the pKd is reported as “below the threshold”.
For GSGAVEMESV [AQP6, Q13520], the pKd was “below the threshold”.

The binders below were run against T8, RHPN1, Q8TCX5 (assay: holdup assay). Details: plain residues with an end cap or a label only (N-terminal biotin on a linker: ado-ado).
Parameters: key: below the threshold = too weak to quantify, mostly under pKd 3.1 to 4
PPYRHRNTVV [ERBB4, Q15303] showed a pKd of 3.6.
In the case of GSGAVEMESV [AQP6, Q13520], the pKd is reported as “below the threshold”.

These binders were tested against T9, SNTA1, Q13424 (assay: holdup assay). Details: plain residues with an end cap or a label only (N-terminal biotin on a linker: ado-ado).
Parameters: key: below the threshold = too weak to quantify, mostly under pKd 3.1 to 4
Work on PPYRHRNTVV [ERBB4, Q15303] yielded a pKd of 5.32.
In the case of GSGAVEMESV [AQP6, Q13520], the pKd is reported as “below the threshold”.
